Experimental findings from article PMC5643395 are described below.

What all share (assay): ensemble FRET (microplate), salt-induced disassembly
Conditions in all cases: Reconstitution by dialysis from 2 M to 5 mM NaCl in 10 mM Tris-HCl, 0.1 mM EDTA; FRET over NaCl titration (FRET buffer and temperature not in the material) …

The subject of data set [1] is histone octamer H2A R81E.
Data set [2] deals with histone octamer H2A R81A.
The test system of data set [3] is histone octamer H2A R88E.
Data set [4] deals with histone octamer H2A R81E/R88E.
Data set [5] relates to histone octamer H2A R81A/R88A.
Data set [6] deals with histone octamer H2A R88A.

Regarding Widom 601 170 bp, the K half in data set [1] is 468 mM NaCl; in data set [2], 632 mM NaCl; in data set [3] it was 455 mM NaCl; in data set [4] it was 452 mM NaCl; in data set [5] it was 568 mM NaCl; in data set [6], 668 mM NaCl.
